doi:10.1101/743492

Target: mCherry-labeled WASp (Drosophila melanogaster)
Test: FRET or BRET

FRET probability: 0.24
Substance: eGFP-labeled Cdc42 (from UniProt P40793 1-191) (natural protein)
